Molecular target: C7LLO (CEA-binding Fn3 - listeriolysin O fusion protein)

B1: carcinoembryonic antigen (CEA) on HT-1080(CEA) and HT-29 cells (other, human, UniProt P06731 35-685, looked up)
chain: KLTIESTPFNVAEGKEVLLLVHNLPQHLFGYSWYKGERVDGNRQIIGYVIGTQQATPGPAYSGREIIYPNASLLIQNIIQNDTGFYTLHVIKSDLVNEEATGQFRVYPELPKPSISSNNSKPVEDKDAVAFTCEPETQDATYLWWVNNQSLPVSPRLQLSNGNRTLTLFNVTRNDTASYKCETQNPVSARRSDSVILNVLYGPDAPTISPLNTSYRSGENLNLSCHAASNPPAQYSWFVNGTFQQSTQELFIPNITVNNSGSYTCQAHNSDTGLNRTTVTTITVYAEPPKPFITSNNSNPVEDEDAVALTCEPEIQNTTYLWWVNNQSLPVSPRLQLSNDNRTLTLLSVTRNDVGPYECGIQNELSVDHSDPVILNVLYGPDDPTISPSYTYYRPGVNLSLSCHAASNPPAQYSWLIDGNIQQHTQELFISNITEKNSGLYTCQANNSASGHSRTTVKTITVSAELPKPSISSNNSKPVEDKDAVAFTCEPEAQNTTYLWWVNGQSLPVSPRLQLSNGNRTLTLFNVTRNDARAYVCGIQNSVSANRSDPVTLDVLYGPDTPIISPPDSSYLSGANLNLSCHSASNPSPQYSWRINGIPQQHTQVLFIAKITPNNNGTYACFVSNLATGRNNSIVKSITVSASGTSPGLSA
- Kd: 4.09 nM

From patent US20140080766A1 (MIT, published 2014)
